{"source": "the DeepSol protein solubility set"}
{"assay": "soluble on expression in E. coli; label from the status in PepcDB or PDB records"}
{"sequence": "MRKLTALFVASTLALGAANLAHAADTTTAAPADAKPMMHHKGKFGPHQDMMFKDLNLTDAQKQQIHEIMKGQRDQMKRPPLEERRAMHDIIASDTFDKAKAEAQIAKMEEQRKANMLAHMETQNKIYNILTPEQKKQFNANFEKRLTERPAAKGKMPATAELEHHHHHH", "soluble on expression in E. coli": "soluble"}
{"sequence": "MRKMMRQSLQAVLPEISGNKTSLLRKSVCSDLLTLFNSPHSALPSLLVSGMPEWQVHNPSDKHLQSWYCRQLRSALLFHEPRIAALQVNLKEAYCHTLAISLEIMLYHDDEPLTFDLVWDNGGWRSATLENVS", "soluble on expression in E. coli": "not soluble"}
{"sequence": "MRKQNRPNQTARKQMQNLTVELFARDKNARRQLLNVALTATPPPSVEPSSPTRPSEPIPPPLPEPIPELVQILLAAEPNKPSVPKRSNRKKLTYKQPPRNSTPQVPKVAVTLPVPEPVPEPVPEPVPESTPEPISEPLPVVQEEPASDSLTVQDEQIAQAEPAVEPEEPVVVEHVEVVTASEDPTLESSPPSEPPLLTTPTTPIEDPEPYVTPPPLQRVPYKAQLTHLANIRAVTESMNIAAIPAHHQQHQPQEPMSFAACVRKQPSIESMSVSPSPYAKFDGKTSPFNVGGFSNPGGFGGFSRLDPSKNVNPFANRKRFNYDYDSLPRDSQSSSRFMDRSDLSDGFSPFNSKPNGFTNRVIPRESASSGMLPSWYKGRSFSAASSHYPYSQRSTSTGHFSSFSRPSQSTSMNIPSHGHVEELDGFLAASGQTNPFFKRTDLNMKKERWAKIKAKKRMLRRPVEDQFYEDPDIEEEILHGNGVMLNQIVQQSSAGNYEDADLLRKYRRDVAFVKERVLNAIDGNIDGIRDLRFLLASVQTYGNIDGECMLAEMAMNEFSLFSGIVEKFHAIVGPWMPESESHRRRASRHALETHRIPLQNNFATITKKRLVEEILGRVEPSIACHQGVKVGLYSDACNEKTKIDLNIKNNFKDPGMLCDKNDRRFILVLQSELDLMVDSMKHLANNVGFHYDGFPVTPNCFVIVEAFVEAISDIMNEKIDVETMRWFSLLGQKVDAEDSVSPWETGTDFHCARHSEPKSNFCASVTVGRTCCIVYHVIGSFFRRYHLKKIPTAHQPSSSNSVQ", "soluble on expression in E. coli": "not soluble"}
{"sequence": "MRKTLIALMFAAALPTVAMAMPEGHGPMGPMDGPRHSEHMRGKGPFSQLDLSREQRQQIGKLMGEQMHDRKAVVEKYLEKLSPADQKAMKDELTAKHQKTQADIRALLKPEQQKEFDTIVKKQEERRAEWAEFKAWKAQQPQKAQLEHHHHHH", "soluble on expression in E. coli": "soluble"}
{"sequence": "MRLDLSAKFRQVLGLAKDHASIGRAIVQNYNEKAFFDIEVAVVRATSHDDCPVDDKTMHEILFLVSNTPGSIPFLAEQISRRLAKTRDCLVAGKTLLLFHRLLRGSSRSIEQQLHIAHTSGHLQIGCSWFMMSLDSRSFVFLQNYVAYLQERVGWIINQAGKLEPVMSGGTKFSRYKEKSMDLVFHILPKCQEFIAQVLKCSPVDAWPIDNLVQAATGNILKESFQVYMTYSDGMTALVSMLFDLSRPARDLACGMLRKASQQIQDLRILYDKCRGFAGMKSLDYPSVQAISMDHIVALEECSSYGGKRGFSLSTNLRDAITCNELKQEQHSASFSSTSPFSLPVETKISMVWVVFDNEDGEESDKQTEKAYER", "soluble on expression in E. coli": "soluble"}
{"sequence": "MRLEVLCEDRLGLTRELLDILASKSIDLRGIEIDISGIIYLNCPDIDFDTFSELMAEIRRIPGVKDVRKIQFMPMERHNTELLSLVDNLPDPVFAIDLKGAVDMANMSALSLLGLHKQEVIGTQIGALLPSVRFSRWSEGVNARTRENLVIDGLDYILELMPVYIRDEAQNSTLASTLMTIRTSQHGTQIE", "soluble on expression in E. coli": "not soluble"}
{"sequence": "MRLEYRLNDETKGYPALWNYANISNSEIIARMTCEYFIKEKNTYVVTATSVDPDGTAVIYIQKEVFANDPSDPTYSYIGFEIRELSETSSNIVDSQDVWNYEEILPSLHSDIIYIQRDGMSMEFSLDSREIDEDRKCYIYYGNFTGESR", "soluble on expression in E. coli": "soluble"}
{"sequence": "MRLFECGTLVPGCAWHTRADDDAEVVRRTVDHMRSAHGETIIRENMIENIKSRIRDEANAA", "soluble on expression in E. coli": "not soluble"}
{"sequence": "MRLHPRTEAAKESIFPRMSGLAQRLGAVNLGQGFPSNPPPPFLLEAVRRALGRQDQYAPPAGLPALREALAEEFAVEPESVVVTSGATEALYVLLQSLVGPGDEVVVLEPFFDVYLPDAFLAGAKARLVRLDLTPEGFRLDLSALEKALTPRTRALLLNTPMNPTGLVFGERELEAIARLARAHDLFLISDEVYDELYYGERPRRLREFAPERTFTVGSAGKRLEATGYRVGWIVGPKEFMPRLAGMRQWTSFSAPTPLQAGVAEALKLARREGFYEALREGYRRRRDLLAGGLRAMGLRVYVPEGTYFLMAELPGWDAFRLVEEARVALIPASAFYLEDPPKDLFRFAFCKTEEELHLALERLGRVVNSPREAEGGAVSG", "soluble on expression in E. coli": "soluble"}
{"sequence": "MRMPASMEPDWKALLRVLRAHSATFYLGSLLFPKEARKGAWAVYAACRLGDEAVDGEGGGPEALEAWCSGVERAYRGRPLAEWEKGLAWALERWDIPFEAFLHMREGFQTDLGPVRLGTEAELLRYCYQVAGTVGRMMAPIAGGGKEAEARAVKLGQAMQLTNILRDVGEDLGRDRVYLPSELLKAYGVRLSDLEAGRITPEYRALMAHLEGKARALYREGLAGLGHLKVGRAAIALAALQYRGILDKLRLSGYDNLGRRAHLKAWERALLLPKAFLAARFPPRPEGSP", "soluble on expression in E. coli": "soluble"}
{"sequence": "MRPDAVMIFAAGFGTRMGALTATRPKPMIEVAGRPLIDHALALAEAAGISRIVANTHYLPESLTAHLAGRALVSHEEEILETGGGLCRALPLLGEGPVYTLNSDAVWTGENPLDELAAGWREGMEALLLLAPSGCAPGDFTMDAAGRLARARGAPGYTYLGAQILRTDRLAGVAEAKFSLNLVWDAMIAAGTAHGLIHRGGWCDVGRPEGIAAAEAMLANVLEHHHHHH", "soluble on expression in E. coli": "not soluble"}
{"sequence": "MRPGGYPKGVQARAWVEVDLAALWANYRLLAGRAGGEVIPVLKADAYGHGALPLARFLEGKGVGRFAVATLEEGRRLREGGIKGEVLLLGSLHPLEAEEALRLGLVPTLSNLEAAEALSQRARALGLVPRAHLKVDTGMNRVGFPSEEAVSALRAVEALGVRVEGVYTHLATAGEDAAFVETQRRRFQEVRRALGEGYFYHLENSLGLLRHGATAGVRVGLALYGLVPGFGLRPILRILARPTLVKRLKAGDRVGYGGVYVARGGEWLATLPVGYADGLPWGAVRFVKGPDGRLLEVAGRISMDQTTVLLPGPVGLEAVFEVLSADFGPTGLLAWAEARGTLPYEVAVHLSRRLPRRYLE", "soluble on expression in E. coli": "soluble"}
{"sequence": "MRPSAIVLAGGKEAWAERFGVGSKALVPYRGRPMVEWVLEALYAAGLSPVYVGENPGLVPAPALTLPDRGGLLENLEQALEHVEGRVLVATGDIPHLTEEAVRFVLDKAPEAALVYPIVPKEAVEARFPRTKRTYARLREGTFTGGNLLLLDKSLFRKALPLARRVVALRKRPLALARLVGWDVLLKLLLGRLSLAEVEARAQRILGVEARALVTPYPEVGVDVDREEDLVS", "soluble on expression in E. coli": "soluble"}
{"sequence": "MRPSGRMENKKQSKGASRGSRRRSINTSNSNTSARHAFSPCSYSSSGTEIRKVAISVSSNSTTELPCAQSPNVGSRTSDSHQLTLGSDLRSEPNNLNIAATLAEPNIAEHFKGVLTKKEAANLTRRDDFTMYYRVVKDQAKVELETTIPLFICYRNSENKVFSFRVEQVLTENNSMWWTVMINKQHTQMFRRLLDLVRCYHSYRFINPETRSQEMFPIWKYTNQASMNP", "soluble on expression in E. coli": "not soluble"}
{"sequence": "MRQATRKGLMTMAAATGVIAAAGGAAHADSGAHGTSSGSPGVLSGNTVQAPVHVPVNVCGNTVDVVGVLNPAMGNACANQGGGASGGHGGHGGHGGYGDSGGEGGSHGGSHAGGHATDSPGVGSGNHVEVPIDVPVNVCGNSIDVVGALNPTTGNDCGNGGGGDHSTPPGDHETPPGEPHNPGNPGNPDTPDKPSGPDDETPGDSTDGNRPGAQTVDQPRGDAALAETGSDLPLGLALPVGAGALLAGTVLYRKARASVLEHHHHHH", "soluble on expression in E. coli": "not soluble"}
{"sequence": "MRQRIAVVGGGPAGLAFARVMHRHDRSVTVLERDPAPDARPPGGTLDLHEGLGRLAMDKAGLSAEFEALSRPEGQAMRILDTDGTVLRDWRPDPAERANPEIDRGQLRDLLLGPLDVRWGQGVTKVVPGGRDGVLVHFEDGRQEAFDLVVGADGAWSRTRPAVSPVTPHYTGVTSVETSLDDVDTRHPDLARLVGDGSVAVYGVNRAVVAQRNSGGHVKVHAQFRAPLDWHAHLDLGDAEAVRSRLLTLFDGWTAPVLDLLRHGTGFVHRPLHVLPVSHTWTHVPGVTLLGDAAHLMPPLGAGANLALLEGAELAESLADGSADPDDAVRAFEERMWARAGRWAKITAAGLERLVSPDPAAALAVFDQVQPSRLEHHHHHH", "soluble on expression in E. coli": "not soluble"}
{"sequence": "MRQRSSYPKPFKAQVVQECLQPGATVSSVAINHGINANVIRKWLPLYRDLPAAASLPAFVPLKAAPKRPVEASVIIELPVAGQVITVKWPASDPEGCAQFIRAFAQLEHHHHHH", "soluble on expression in E. coli": "not soluble"}
{"sequence": "MRRDYMSVYDYPVPTTPWLNTAPGLFIDDYTSTASSTVSSLSRTLIYDYEQNPDSGNNVVALAAKAGYSTWWISNQGKLGEHDTRISVIASDAEHATFLKKGSFASRKTDDKLLLQETERALADTSSPKIIFLHMMGSHPNPCDSLNSLEHHHHHH", "soluble on expression in E. coli": "not soluble"}
{"sequence": "MRRIITMTVNNRPGVLNRITGLFTKRHYNIESITVGHTEIEGISRMTFVVNVDDERTAEQIIKQLNKQIDVLKVNDITDQAIVARELALIKVAAPPAVRQEIYTLIEPFRASIVDVSKDSLVIQVTGEPEKVEALIELLRPYGIKEVARTGTTAFTRGAQKATTNQKTAFII", "soluble on expression in E. coli": "not soluble"}
{"sequence": "MRRKNLFWDDVYKGTPPWDLDHPQPAFEALIKNGEIKPGRALDIGCGRGENAIILAMNGCDVIGIDLAENAISDAKAKATERHVKVKFVVEDALQMNRLFEEGEFDVVIDSGLFHVMMDEQRRVFAQQVHRVLREGGKYFMLCFSDKEPGEYELPRRLSKAEIESTFSPVFDITYIKEAVFDSLLSPSRRKAYLLSATRSLEHHHHHH", "soluble on expression in E. coli": "not soluble"}
{"sequence": "MRRQRRSITDIICENCNYLPTKRSRNKRKPIPKESDVKTFNYTAHLWDIRWLRERARKTR", "soluble on expression in E. coli": "not soluble"}
{"sequence": "MRRRVGLGAIQQQKLAAEKYKDKGTDLQENQLEQMTKQMEVFRVKLEEFAMKHKEDIRKNSQFRKQFQEMCAAIGVDPLATGKGFWSVLGMGDFYYELGVQVVEVCLAANHKTGGLMELDDLRRRLIAARGQSSVHQEITKEDILMAAKKLSIFGNGFVVHKLGKGKYIVQSIPGELSMEETNILNAASNTEQGCVTQSQLIKDLGWTDYRAQQSLDKVLGEGLCWIDKQAGDEPAYWFPSLFPGRNAQTTAATAAAAAALEHHHHHH", "soluble on expression in E. coli": "not soluble"}
{"sequence": "MRRTTRYPVSGESSLWNVYKTVSFWKVMKNFIIIQIARYTPFLSVKNWLYRTFLRMKVGKKTSFALMVMPDIMFPEKITVGDNSIIGYNTTLLAHEYLIREYRLGEIVIGNEVMIGANTTILPGVRIGDGAIVSAGTLVHKDVPSGAFVGGNPMRVIYTKEQMEAREGSY", "soluble on expression in E. coli": "not soluble"}
{"sequence": "MRSAIAAPILFLLVSFFVQECESVGFAPELYCGLENCYDVLEVNREEFDKQKLAKAYRALARKHHPDRVKNKEEKLLAEERFRVIATAYETLKDDEAKTNYDYYLDHPDQRFYNYYQYYRLRAAPKVDL", "soluble on expression in E. coli": "not soluble"}
{"sequence": "MRTEGRLVRANLPLNLPSPTMRYMTPQRFGMGGTQIGNIFAPISDEQADLVLQAAWNAGVRLYDTSPFYGFGLSEYRLGRFLRGKDPADYVISTKVGRVLTAAGGARQDHAIWKSPAPFNYRYDYTAAGARRSVEDSLQRLGLPRIDIVFIHDLSPDNTELEGGWEAAYRIARTGAMVELEKMRDEGLIKAWGFGVNTPNAVVQAMGSDDPTPDIVLLACQYSLIDHSEALRNTFPALHRKGTSVVVGTPLNDGFLGGRNRYNFSLELPAGAVEKRKRIMAVAARHGIDIHTAALQFAAAHPQVSAIIPGARSPGQVMSNVQAMKVGIPAAFWAELKSQSLMDAQAPVPS", "soluble on expression in E. coli": "not soluble"}
